Laboratory results published in patent publication US20230382979A1 (ADAPTIVE BIOTECHNOLOGIES, published 2023).
Residue numbers refer to the chain shown, from its start. Read-outs that look alike come from different tables or passages of the source.

T1: MERS-COV (S2)
T1 chain: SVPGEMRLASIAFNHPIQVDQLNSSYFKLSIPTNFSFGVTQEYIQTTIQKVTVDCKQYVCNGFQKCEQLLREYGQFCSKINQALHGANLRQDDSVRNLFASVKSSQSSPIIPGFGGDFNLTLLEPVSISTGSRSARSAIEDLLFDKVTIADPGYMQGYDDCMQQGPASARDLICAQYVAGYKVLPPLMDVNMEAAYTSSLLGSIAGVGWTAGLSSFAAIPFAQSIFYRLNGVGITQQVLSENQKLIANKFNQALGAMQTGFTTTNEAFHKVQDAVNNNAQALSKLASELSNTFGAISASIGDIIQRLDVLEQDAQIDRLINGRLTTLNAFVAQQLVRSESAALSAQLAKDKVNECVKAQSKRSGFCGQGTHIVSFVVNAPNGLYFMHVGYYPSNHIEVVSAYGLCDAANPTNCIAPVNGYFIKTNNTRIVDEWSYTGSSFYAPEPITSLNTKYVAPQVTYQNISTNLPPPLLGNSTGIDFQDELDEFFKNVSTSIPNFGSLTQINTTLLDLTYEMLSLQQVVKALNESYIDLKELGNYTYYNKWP

T2: MERS-COV (S1+S2)
T2 chain: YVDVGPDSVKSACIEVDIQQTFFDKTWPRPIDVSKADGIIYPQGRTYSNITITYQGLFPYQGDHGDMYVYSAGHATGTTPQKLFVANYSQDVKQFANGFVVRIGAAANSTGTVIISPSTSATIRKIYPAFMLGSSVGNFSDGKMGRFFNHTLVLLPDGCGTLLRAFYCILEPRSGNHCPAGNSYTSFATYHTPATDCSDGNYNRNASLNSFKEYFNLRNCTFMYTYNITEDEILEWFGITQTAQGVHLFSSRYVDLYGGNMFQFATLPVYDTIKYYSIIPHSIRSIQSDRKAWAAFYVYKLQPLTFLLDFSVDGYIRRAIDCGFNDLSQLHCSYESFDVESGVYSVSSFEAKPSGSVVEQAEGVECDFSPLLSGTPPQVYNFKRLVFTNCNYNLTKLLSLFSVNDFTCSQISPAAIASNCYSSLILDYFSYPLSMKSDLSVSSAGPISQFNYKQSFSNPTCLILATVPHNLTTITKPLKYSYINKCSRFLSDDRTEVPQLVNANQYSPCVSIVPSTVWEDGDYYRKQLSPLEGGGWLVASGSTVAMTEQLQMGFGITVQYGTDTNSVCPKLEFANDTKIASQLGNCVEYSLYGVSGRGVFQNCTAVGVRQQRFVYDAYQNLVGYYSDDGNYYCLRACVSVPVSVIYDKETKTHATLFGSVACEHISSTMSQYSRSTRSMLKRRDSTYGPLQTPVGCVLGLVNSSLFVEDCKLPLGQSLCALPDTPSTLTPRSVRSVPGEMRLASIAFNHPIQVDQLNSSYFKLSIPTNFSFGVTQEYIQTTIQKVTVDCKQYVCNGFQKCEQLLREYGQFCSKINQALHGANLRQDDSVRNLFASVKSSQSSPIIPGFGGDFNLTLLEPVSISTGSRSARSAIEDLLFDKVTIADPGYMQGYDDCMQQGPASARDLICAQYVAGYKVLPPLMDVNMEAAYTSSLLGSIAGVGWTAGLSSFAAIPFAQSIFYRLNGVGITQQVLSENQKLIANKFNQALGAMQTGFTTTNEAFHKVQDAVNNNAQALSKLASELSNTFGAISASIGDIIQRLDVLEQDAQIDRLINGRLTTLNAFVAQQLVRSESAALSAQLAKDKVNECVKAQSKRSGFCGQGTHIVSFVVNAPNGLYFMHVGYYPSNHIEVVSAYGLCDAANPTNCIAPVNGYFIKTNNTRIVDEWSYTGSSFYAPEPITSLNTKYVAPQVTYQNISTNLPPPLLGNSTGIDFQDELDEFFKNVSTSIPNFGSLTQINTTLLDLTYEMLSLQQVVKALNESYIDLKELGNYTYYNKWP

B1: antibody 1872 (antibody, V domains shown)
VH: EVQLVESGGGLVKPGGSLRLSCAASGFSFSLYTMNWVRQAPGKGLEWVSYISSSSSYRYYADSVKGRFSVSRDNAKNALYLQMNGLRAEDTAVYYCARDGYCPRGVCTYYGMDVWGQGTTVTVSA
VL: EIVMTQSPATLSVSPGERATLSCRASQSVGSRLAWYQQKPGQAPRLLIYDATIRATGIPARFSGSGSGTDFTLTISGLQSEDFAVYYCQRYNNWPPAYTFGQGTKLEIK
B2: antibody 1859 (antibody, V domains shown)
VH: B1 VH with S30N, L31T, R58K, A61S, N77K, A78S, R104N, A125L
VL: B1 VL with G30S, R32N, D50G, T52S, I53T, D70E, Y87F, R90Q, N92S, N93K
B3: antibody 2080 (antibody, V domains shown)
VH: QVQLQQWGAGLLKPSETLSLTCAVYGGSFSGYYWSWIRQPPGKGLEWIGRINDIGSTDYNPSLKSRVTISVDTSKNQFSLKLTSVTAADTAVYYCAREPFDSEGTFDYWGQGTLVIVSS
VL: DIQMTQPPSTLSASVGDRVTITCRASQSISRWLAWYRQKPGKAPKLLIYDASSLQSGVPSRFSGSGSGTEFTLTISSLQPDDLATYYCQQYNTYPYTFGQGTKLEIK
B4: antibody 2024 (antibody, V domains shown)
VH: QVQLVQSGAEVKKPGASVKVSCKVSGYTLIELSMHWVRQAPGKGLEWMGGFDPEEGETIYAQKFQGRVTMTEDTSTDTAYMELSSLRSEDTAVYYCTTSPPVGATGAWFDPWGQGTLVTVSA
VL: SYVLTQPPSVSVAPGKTARITCGGNNIGSKSVHWYQQKPGQAPVLVVYDDSDRPSGIPERFSGSNSGNTATLTISGLQAEDEADYYCSSYTSSSTVVFGGGTKLTVL

What was measured:
[1] = target: T3, S1 subunit of the SARS-CoV-2 spike protein, WA01/2020 strain (SARS-CoV-2, WA01/2020 strain, UniProt P0DTC2 16-685); assay: ELISA screening, antibody concentration not given
[2] = target: T4, SARS-CoV-2 nucleocapsid (N) protein (SARS-CoV-2, UniProt P0DTC9 1-419); assay: ELISA screening, antibody concentration not given
[3] = target: SARS-CoV (2003) spike protein borne on lentiviral pseudovirus (SARS-CoV (2003), UniProt P59594 14-1255); assay: cell-based or functional assay
[4] = target: SARS-CoV-2 spike protein, WA1/2020, borne on lentiviral pseudovirus (SARS-CoV-2, WA01/2020 strain, UniProt P0DTC2 14-1273); assay: cell-based or functional assay
[5] = target: T5, S2 subunit of the SARS-CoV-2 spike protein, WA01/2020 strain (SARS-CoV-2, WA01/2020 strain, UniProt P0DTC2 686-1213); assay: dose-response ELISA; antigen taken from the column 'Structural data'
[6] = target: T1, MERS-COV (S2); assay: dose-response ELISA on coated spike antigen
[7] = target: T2, MERS-COV (S1+S2); assay: dose-response ELISA on coated spike antigen
[8] = target: T5, S2 subunit of the SARS-CoV-2 spike …; assay: ELISA on S2 (S2 Binding EC50)
[9] = target: T1, MERS-COV (S2); assay: dose-response ELISA on coated spike antigen
[10] = target: T2, MERS-COV (S1+S2); assay: dose-response ELISA on coated spike antigen
[11] = target: T3, S1 subunit of the SARS-CoV-2 spike …
[12] = target: T3, S1 subunit of the SARS-CoV-2 spike …; assay: dose-response ELISA; antigen taken from the column 'Structural data'
[13] = target: T6, SARS-CoV-2 spike (S) protein trimer, WA01/2020 strain (SARS-CoV-2, WA01/2020 strain, UniProt P0DTC2 16-1213)
[14] = target: T3, S1 subunit of the SARS-CoV-2 spike …; assay: ELISA, antibody at 0.1 ug/mL
[15] = target: T5, S2 subunit of the SARS-CoV-2 spike …; assay: ELISA, antibody at 0.1 ug/mL
[16] = target: T4, SARS-CoV-2 nucleocapsid (N) protein; assay: ELISA, antibody at 0.1 ug/mL
[17] = target: T6, SARS-CoV-2 spike (S) protein trimer, …; assay: dose-response ELISA; antigen taken from the column 'Structural data'

| Binder | binding result [1] | binding result [2] | Pseudo Neut, SARS-CoV 2003 IC50 [3] [nM] | Pseudo Neut, WA1/2020 IC50 (pM) [4] [pM] | EC50 [5] [nM] | EC50 [8] [nM] | other results |
| --- | --- | --- | --- | --- | --- | --- | --- |
| B1 | no binding (tested: not printed) | no binding (tested: not printed) | 27 | 133 | 0.071 | 0.071 | binding result [6]: no binding (tested: 10000 ng/ml); binding result [7]: no binding (tested: 10000 ng/ml) |
| B2 | no binding (tested: not printed) | no binding (tested: not printed) | 115 | 889 | 1.22 | 1.22 | binding result [9]: no binding (tested: 10000 ng/ml); binding result [10]: no binding (tested: 10000 ng/ml) |
| B3 | – | – | – | – | – | – | Kd [11]: 0.69 nM; EC50 [12]: 0.025 nM |
| B4 | – | – | – | – | – | – | Kd [13]: 15.6 nM; binding result [14]: no binding (tested: 0.1 ug/mL); binding result [15]: no binding (tested: 0.1 ug/mL); binding result [16]: no binding (tested: 0.1 ug/mL); EC50 [17]: 1.15 nM |
